Data reported in publication PMC2854692.

Biological target: Glucagon receptor (UniProt P47871)
Chain of UniProt P47871 (P47871 26-477): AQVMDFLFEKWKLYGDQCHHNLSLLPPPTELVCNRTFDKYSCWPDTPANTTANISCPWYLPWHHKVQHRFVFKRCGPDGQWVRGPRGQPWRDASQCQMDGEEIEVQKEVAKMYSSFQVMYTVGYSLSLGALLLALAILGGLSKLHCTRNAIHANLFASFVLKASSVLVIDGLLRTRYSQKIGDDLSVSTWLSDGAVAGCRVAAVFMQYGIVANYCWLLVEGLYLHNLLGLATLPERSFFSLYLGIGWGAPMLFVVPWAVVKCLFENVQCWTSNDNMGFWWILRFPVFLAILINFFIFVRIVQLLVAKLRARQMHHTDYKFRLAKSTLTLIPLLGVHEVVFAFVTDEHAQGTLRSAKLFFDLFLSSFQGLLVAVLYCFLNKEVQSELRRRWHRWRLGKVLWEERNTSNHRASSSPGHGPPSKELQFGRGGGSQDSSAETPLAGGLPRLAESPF

potency in the Ca2+-flux assay (FLIPR) on a transfected GcgR cell line, relative to unmodified glucagon, molar basis (% of the potency of unmodified glucagon): 15
B1: Gcg-XTEN (ligand)
chain: HSQGTFTSDYSKYLDSRRAQDFVQWLMNTGGTSTPESGSASPGTSPSGESSTAPGTSPSGESSTAPGSTSSTAESPGPGSTSESPSGTAPGSTSSTAESPGPGTSPSGESSTAPGTSTPESGSASPGSTSSTAESPGPGTSPSGESSTAPGTSPSGESSTAPGTSPSGESSTAPG
